Paper PMC8937303

Target: pFGFR2_(Cyto) (UniProt P21802)
Test: MST

Chain of pFGFR2_(Cyto) (P21802 400-821): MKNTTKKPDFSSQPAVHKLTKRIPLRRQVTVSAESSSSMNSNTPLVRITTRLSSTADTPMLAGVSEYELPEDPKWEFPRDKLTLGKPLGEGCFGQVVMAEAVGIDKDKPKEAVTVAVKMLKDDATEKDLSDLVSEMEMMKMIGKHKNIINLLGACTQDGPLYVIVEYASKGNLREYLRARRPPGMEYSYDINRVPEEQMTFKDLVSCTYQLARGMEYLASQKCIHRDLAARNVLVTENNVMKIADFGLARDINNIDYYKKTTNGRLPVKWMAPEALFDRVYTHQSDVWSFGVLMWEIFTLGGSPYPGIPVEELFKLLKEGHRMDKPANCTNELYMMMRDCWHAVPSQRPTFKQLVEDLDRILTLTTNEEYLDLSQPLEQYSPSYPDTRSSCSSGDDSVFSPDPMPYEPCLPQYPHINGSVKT

Kd | Substance
0.223 µM | PLCγ1_(2SH2) (from UniProt P19174 545-791) (domain or fragment)
25.1 µM | SHP2_(2SH2) (from UniProt Q06124 1-221) (domain or fragment)
